Results reported in patent publication US20160168234A1 (published 2016).
Ends that are not written are not given here.

Tests used:
Assay in all cases: ELISA on biotinylated peptides of the alanine library on streptavidin plates
[1] = molecular target: T1, peptide A16 of the second library (Aβ12-20 with aa 16 changed to alanine) (also: biotinylated, position not given here)
T1 peptide: VHHQALVFF
Source text: (§1) One library comprised a total of 33 biotinylated peptides covering the complete amino acid (aa) sequence of Aβ1-42 (produced by Mimotopes and purchased from ANAWA Trading SA), the second library contains biotinylated peptides using peptide 12 (aa12-20 of Aβ) from the first peptide library and substituting each as in the sequence by an alanine (see table 3 below), and the third library contains biotinylated peptides 13, 14, or 15 (aa 13-21, 14-22 or 15-23 of Aβ) and substituting in each case the last amino acids to an alanine or to a glycine for as 21 which is already an alanine (see table 4 below). A biotinylated complete Aβ1-42 peptide was used as positive control (Bachem). Epitope mapping was done according to the manufacturer's (Mimotopes) instructions. Briefly, Streptavidin coated plates (NUNC) were blocked with 0.1% BSA in PBS overnight at 4° C. After washing with PBS-0.05% Tween 20, plates were coated for 1 hour at RT with the different peptides from the library, diluted in 0.1% BSA, 0.1% Sodium Azide in PBS to a final concentration of 10 μM. […] Plates were washed again and incubated with alkaline phosphatase conjugated goat anti human IgG for 1 h at RT. After final washing, plates were incubated with phosphatase substrate (pNPP) and read at 405 nm using an ELISA plate reader.

[2] = molecular target: T2, peptide A20 of the second library (Aβ12-20 with aa 20 changed to alanine) (also: biotinylated, position not given here)
T2 peptide: VHHQKLVFA
Source text: as §1

[3] = molecular target: T3, peptide A19 of the second library (Aβ12-20 with aa 19 changed to alanine) (also: biotinylated, position not given here)
T3 peptide: VHHQKLVAF
Source text: as §1

[4] = molecular target: T4, peptide A17 of the second library (Aβ12-20 with aa 17 changed to alanine) (also: biotinylated, position not given here)
T4 peptide: VHHQKAVFF
Source text: as §1

Measured: binding result

B1: humanized anti-human amyloid beta monoclonal antibody hC2 (antibody, human IgG4 S228P, kappa)
heavy: not shown
light: DIVMTQSPLSLPVTPGEPASISCRSSQSLVYSNGDTYLHWYLQKPGQSPQLLIYKVSNRFSGVPDRFSGSGSGTDFTLKISRVEAEDVGVYYCSQSTHVPWTFGQGTKVEIKRTVAAPSVFIFPPSDEQLKSGTASVVCLLNNFYPREAKVQWKVDNALQSGNSQESVTEQDSKDSTYSLSSTLTLSKADYEKHKVYACEVTHQGLSSPVTKSFNRGEC
notes: also called humanized antibody C2; humanized C2
no binding (tested: 200 ng/ml): [1] | [2] | [3] | [4]
